From publication PMC5001721, “Reconstitution of Protein Translation of Mycobacterium Reveals Functional Conservation and Divergence with the Gram-Negative Bacterium Escherichia coli” (PLoS ONE, 2016)

Molecular target: T1, M. tuberculosis elongation factor Ts (EF-Ts) with an N-terminal 6xHis-tag and linker (M. tuberculosis, UniProt P9WNM1 1-271)
T1 sequence: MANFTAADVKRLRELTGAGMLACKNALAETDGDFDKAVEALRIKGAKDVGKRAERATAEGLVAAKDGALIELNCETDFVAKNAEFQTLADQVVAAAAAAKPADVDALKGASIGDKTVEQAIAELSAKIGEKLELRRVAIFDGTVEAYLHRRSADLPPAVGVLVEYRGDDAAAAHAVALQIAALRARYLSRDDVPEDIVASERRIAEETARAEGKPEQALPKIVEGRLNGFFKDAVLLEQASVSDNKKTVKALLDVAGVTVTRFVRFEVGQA
Assay: affinity purification with mass spectrometry
Conditions: partners not purified

B1: M. tuberculosis elongation factor Tu (EF-Tu) (natural protein)
chain: not shown
With B1 the “stoichiometry N” value was 1.
